Assay results from patent US20170037124A1 (Regeneron, published 2017).
Each block holds one binder with its values, some of them ahead of it.

How the values were obtained:
[1] = target: T1, anti-mFc (AMC) Octet biosensor, blank; assay: BLI Octet, blank AMC sensor, 100 nM mAb, 25C
T1 construct: Sensor without captured protein, used as blank; also called Blank AMC Sensor
Summary of the method: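 Antigen-mFc (human or cynomolgus ANGPTL8; hLDLR-mFc as negative control; one blank sensor) captured to ~1.6 nm from 10 μg/mL over 4 min. Sensors dipped 4 min in 100 nM mAb or isotype control at 25° C. Buffer: 10 mM HEPES pH 7.4, 150 mM NaCl, 0.05% Tween-20, 1 mg/ml BSA, shaken at 1000 rpm.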

[2] = target: T2, monkey ANGPTL8 expressed with C-terminal mouse IgG2a Fc tag (MfANGPTL8-mFc; SEQ ID NO: 341) (cynomolgus monkey); assay: BLI Octet, captured antigen, 100 nM mAb, 25C
T2 construct: also called cynomolgus monkey ANGPTL8
T2 chain: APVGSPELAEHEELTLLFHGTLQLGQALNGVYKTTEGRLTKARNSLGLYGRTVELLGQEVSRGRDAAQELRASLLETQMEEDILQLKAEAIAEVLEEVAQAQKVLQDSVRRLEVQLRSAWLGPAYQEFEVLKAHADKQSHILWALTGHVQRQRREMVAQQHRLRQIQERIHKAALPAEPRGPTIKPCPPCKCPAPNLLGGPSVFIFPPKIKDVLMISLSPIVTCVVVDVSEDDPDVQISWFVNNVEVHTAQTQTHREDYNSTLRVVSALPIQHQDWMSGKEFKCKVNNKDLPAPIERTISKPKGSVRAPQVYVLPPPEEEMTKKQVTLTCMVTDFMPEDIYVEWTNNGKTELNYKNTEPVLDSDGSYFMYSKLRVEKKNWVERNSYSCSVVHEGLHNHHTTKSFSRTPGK

[3] = target: T3, human ANGPTL8 expressed with C-terminal mouse IgG2a Fc tag (hANGPTL8-mFc; SEQ ID NO: 340) (human); assay: BLI Octet, captured antigen, 100 nM mAb, 25C
T3 construct: also called Angiopoietin-like protein 8
T3 chain: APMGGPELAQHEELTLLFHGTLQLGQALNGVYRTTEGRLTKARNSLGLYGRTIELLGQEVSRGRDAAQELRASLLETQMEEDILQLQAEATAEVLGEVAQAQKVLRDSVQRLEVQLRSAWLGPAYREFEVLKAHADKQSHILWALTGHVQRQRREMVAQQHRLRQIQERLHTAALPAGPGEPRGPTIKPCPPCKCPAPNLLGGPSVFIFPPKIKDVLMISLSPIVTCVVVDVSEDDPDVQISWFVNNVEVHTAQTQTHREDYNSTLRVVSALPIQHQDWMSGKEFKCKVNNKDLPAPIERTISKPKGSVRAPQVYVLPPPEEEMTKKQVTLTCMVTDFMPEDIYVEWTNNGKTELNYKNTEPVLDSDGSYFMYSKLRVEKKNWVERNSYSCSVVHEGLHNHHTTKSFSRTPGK

[4] = target: T3, human ANGPTL8 expressed with C-terminal …; assay: BLI Octet, captured antigen, 100 nM mAb, 25C
[5] = target: T4, peptide from the N-terminal coiled-coil region of human ANGPTL3 (hANGPTL3 peptide, SEQ ID NO: 338) (human); assay: SPR, captured mAb, 500 nM peptide, 25C
T4 construct: also called hANGPTL3 shift peptide
T4 peptide: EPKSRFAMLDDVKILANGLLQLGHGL

[6] = target: T5, peptide from the N-terminal coiled-coil region of human ANGPTL4 (hANGPTL4 peptide, SEQ ID NO: 339) (human); assay: SPR, captured mAb, 500 nM peptide, 25C
T5 peptide: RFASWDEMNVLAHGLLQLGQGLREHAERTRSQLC

[7] = target: T6, human ANGPTL8 peptide (hANGPTL8 peptide, SEQ ID NO: 337) (human); assay: SPR, captured mAb, 500 nM peptide, 25C
T6 construct: also called N-terminal region ANGPTL8 peptide
T6 peptide: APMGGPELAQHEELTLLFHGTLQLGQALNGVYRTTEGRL

[8] = target: T2, monkey ANGPTL8 expressed with …; assay: SPR MASS-1, antigen-mFc captured, mAb injected, 25C; no dissociation seen, kd fixed at the detection limit
Method: (§1) All binding studies were performed in 10 mM HEPES pH 7.4, 150 mM NaCl, 3 mM EDTA, and 0.05% v/v Surfactant Tween-20 (HBS-ET running buffer) at 25° C. The HCA sensor surface was first derivatized by amine coupling goat anti-mouse IgG2a polyclonal antibody (Southern Biotech, #1080-01) onto which was then captured approximately 30 RU ([…]) of human ANGPTL8 expressed with C-terminal mouse IgG2a Fc tag (hANGPTL8-mFc; SEQ ID NO: 340) or monkey ANGPTL8 expressed with C-terminal mouse IgG2a Fc tag (MfANGPTL8-mFc; SEQ ID NO: 341).
(§2) Kinetic association (kₐ) and dissociation (kd) rate constants were determined by fitting the real-time binding sensorgrams to a 1:1 binding model with mass transport limitation using Scrubber 2.0c curve-fitting software. Binding dissociation equilibrium constants (KD) and dissociative half-lives (t½) were calculated from the kinetic rate constants as: […]
(§3) To obtain an estimate of the binding affinity the dissociation rate constant, kd, was fixed at the upper detection limit under the experimental conditions, 1.0E-05 1/s.

[9] = target: T3, human ANGPTL8 expressed with C-terminal …; assay: as above
Method: as §1, §2, §3

[10] = target: T2, monkey ANGPTL8 expressed with …; assay: SPR MASS-1, antigen-mFc captured, mAb injected, 25C
Method: as §1, §2

[11] = target: T3, human ANGPTL8 expressed with C-terminal …; assay: as above
Method: as §1, §2

[12] = target: T3, human ANGPTL8 expressed with C-terminal …; assay: BLI Octet, captured antigen, 100 nM mAb, 25C; background 0.03 nm
Method: Binding of ANGPTL8 antibodies to human and monkey ANGPTL8 proteins was investigated using Bio-layer Interferometry with an Octet HTX biosensor platform (ForteBio, A Division of Pall Life Sciences). All experiments were performed at 25° C. in 10 mM HEPES pH 7.4, 150 mM NaCl, 0.05% v/v Surfactant Tween-20, and 1 mg/ml BSA with the reaction multiwell plate agitated at 1000 rpm. Approximately 1.6 nm of human ANGPTL8 produced with a C-terminal mouse IgG2a Fc tag (hANGPTL8-mFc; SEQ ID NO: 340) or cynomolgus monkey ANGPTL8 produced with a C-terminal mouse IgG2a Fc tag (MfANGPTL8-mFc; SEQ ID NO: 341) was captured onto anti-mFc (AMC) Octet biosensors by submerging the sensors into wells containing 10 μg/mL of each protein for 4 minutes. Under the same conditions a negative control protein with the same mFc tag (hLDLR-mFc) was also coupled to the AMC sensor. All four sensors, […] and one blank, were then submerged into wells containing 100 nM of different ANGPTL8 monoclonal antibodies or an isotype control for 4 minutes.

[13] = target: T7, linear peptide 1APMGGPELAQHEELT15 (SEQ ID NO: 348) (human); assay: Pepscan peptide array ELISA, 1 µg/ml antibody
T7 construct: Synthesized on a solid support (Pepscan array)
T7 peptide: APMGGPELAQHEELT

mAb Binding Response (nm) [1]: 0.02 nm
mAb Binding Response (nm) [2]: 0.02 nm
mAb Binding Response (nm) [3]: 0.03 nm
500 nM hANGPTL3 peptide Bound (RU) [5]: 0 RU
500 nM hAngPTL4 peptide Bound (RU) [6]: 0 RU
500 nM hANGPTL8 peptide Bound (RU) [7]: 0 RU
B1: H4H15316P (antibody, human IgG4, V domains shown)
VH: EVQLVESGGGLVQPGRSLRLSCAASGFIFDDYDMHWVRQAPGKGLEWVSGISWNSGSKGYADSVKGRFTISRDNAKNSLYLQMNSLRAEDTALYYCTKGPWDYFDYWGQGTLVTVSS
VL: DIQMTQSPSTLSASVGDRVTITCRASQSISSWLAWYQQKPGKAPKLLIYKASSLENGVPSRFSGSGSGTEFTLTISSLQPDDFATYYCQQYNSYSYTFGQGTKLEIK
notes: H4H prefix: human IgG4 Fc
binding result [4]: no binding (tested: 100 nM mAb; background 0.03 nm)
binding result [5]: no binding (tested: <9 RU at 500 nM peptide)
binding result [6]: no binding (tested: <9 RU at 500 nM peptide)
binding result [7]: no binding (tested: <9 RU at 500 nM peptide)

koff [8]: ≤ 1e-05 s⁻¹
koff [9]: ≤ 1e-05 s⁻¹
mAb Binding Response (nm) [1]: 0.03 nm
mAb Binding Response (nm) [2]: 0.1 nm
mAb Binding Response (nm) [3]: 0.12 nm
500 nM hANGPTL3 peptide Bound (RU) [5]: 0 RU
500 nM hAngPTL4 peptide Bound (RU) [6]: 0 RU
500 nM hANGPTL8 peptide Bound (RU) [7]: 0 RU
Kd [10]: ≤ 0.086 nM
kon [10]: 116000 M⁻¹ s⁻¹
t½ [10]: ≥ 19.2 h
Kd [11]: ≤ 0.117 nM
kon [11]: 85000 M⁻¹ s⁻¹
t½ [11]: ≥ 19.2 h
B2: H4H15341P (antibody, human IgG4, V domains shown)
VH: EVQLVESGGGLVQPGGSLRLSCAASGFTFNNHEMNWVRQAPGKGLEWVSYISSSGNTVTYADFLKGRFTISRDNAKNSLFLQMNSLRDEDTAVYYCARDHLSGTSPLSYWGQGTLVTVSS
VL: DIQMTQSPSSLSASVGDRVTITCQASQDINNYLNWFQQKPGKAPKLLIFDASNLETGVPSRFSGSGSGTDFTFTISSLQPEDIATYFCQQYENLPYTFGQGTKLEIK
notes: H4H prefix: human IgG4 Fc
binding result [5]: no binding (tested: <9 RU at 500 nM peptide)
binding result [6]: no binding (tested: <9 RU at 500 nM peptide)
binding result [7]: no binding (tested: <9 RU at 500 nM peptide)

binding signal, fold above background [12]: ≥ 10 fold
mAb Binding Response (nm) [1]: 0 nm
mAb Binding Response (nm) [2]: 0.33 nm
mAb Binding Response (nm) [3]: 0.32 nm
binding result [13]: binds
500 nM hANGPTL3 peptide Bound (RU) [5]: 0 RU
500 nM hAngPTL4 peptide Bound (RU) [6]: 0 RU
500 nM hANGPTL8 peptide Bound (RU) [7]: 43 RU
koff [7]: 9.82e-05 s⁻¹
t½ [7]: 1.97 h
B3: H4H15367P2 (antibody, human IgG4, V domains shown)
VH: QVQLVESGGGVVQPGRSVRLSCGASGFTFKYYGMHWVRQAPGKGLEWVAVIWYDGRNKFYADSVKGRFTISRDNSKNTVNLEMNNLRAEDTAIYYCARDGGTADGDYFDYWGQGTLVTVSS
VL: not shown
notes: H4H prefix: human IgG4 Fc
binding result [5]: no binding (tested: <9 RU at 500 nM peptide)
binding result [6]: no binding (tested: <9 RU at 500 nM peptide)
